# Measured values as given in paper PMC3240692 (The FEBS journal, 2011).
# T1: BcUGlcAE (Bacillus cytotoxicus, UniProt A7GQD3)
# T1 sequence (A7GQD3 1-314): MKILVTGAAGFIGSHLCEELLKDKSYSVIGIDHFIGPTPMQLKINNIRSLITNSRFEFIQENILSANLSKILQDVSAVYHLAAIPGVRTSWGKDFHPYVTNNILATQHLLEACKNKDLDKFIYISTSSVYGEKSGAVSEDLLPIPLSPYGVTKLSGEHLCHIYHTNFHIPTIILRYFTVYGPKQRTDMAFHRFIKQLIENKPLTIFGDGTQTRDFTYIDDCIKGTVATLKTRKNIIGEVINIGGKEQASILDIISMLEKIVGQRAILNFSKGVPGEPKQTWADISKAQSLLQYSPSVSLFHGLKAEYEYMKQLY
# B1: BcUGlcAE (Bacillus cytotoxicus NVH 391-98) (protein)
# chain: T1 sequence (A7GQD3 1-314)
# How the values were obtained:
# BcUGlcAE = target: T1, BcUGlcAE; test: HPLC product assay, inhibition; type: biochemical; settings: 1 mM UDP-GlcA, 1 mM NAD+, 50 mM phosphate pH 7.6, 37 °C
# HPLC [1] = substrate: Cc1cn([C@H]2C[C@H](O)[C@@H](COP(=O)(O)OP(=O)(O)O[C@H]3O[C@H](C(=O)O)[C@@H](O)[C@H](O)[C@H]3O)O2)c(=O)[nH]c1=O; test: HPLC; type: biochemical, Bacillus cytotoxicus; settings: 1 mM NAD+, 50 mM sodium phosphate pH 7.6, 37 °C
# HPLC [2] = substrate: O=C(O)[C@H]1O[C@H](OP(=O)(O)OP(=O)(O)OC[C@H]2O[C@@H](n3ccc(=O)[nH]c3=O)[C@H](O)[C@@H]2O)[C@H](O)[C@@H](O)[C@@H]1O; test: HPLC; type: biochemical, Bacillus cytotoxicus; settings: 1 mM NAD+, 50 mM sodium phosphate pH 7.6, 37 °C
Molecule,inhibition (BcUGlcAE),Km (HPLC [1]) [µM],kcat (HPLC [1]) [s⁻¹],kcat/Km (HPLC [1]) [M⁻¹ s⁻¹],Km (HPLC [2]) [µM],kcat (HPLC [2]) [s⁻¹],kcat/Km (HPLC [2]) [M⁻¹ s⁻¹]
O=c1ccn([C@@H]2O[C@H](COP(=O)(O)OP(=O)(O)O)[C@@H](O)[C@H]2O)c(=O)[nH]1 [UDP],the epimerase was highly inhibited by UDP and to a lesser extent by UDP-Xyl,,,,,,
O=c1ccn([C@@H]2O[C@H](COP(=O)(O)OP(=O)(O)O[C@H]3OC[C@@H](O)[C@H](O)[C@H]3O)[C@@H](O)[C@H]2O)c(=O)[nH]1 [UDP-Xyl],the epimerase was highly inhibited by UDP and to a lesser extent by UDP-Xyl,,,,,,
B1,,180 ± 10,2.1 ± 0.1,12000 ± 400,120 ± 10,3.2 ± 0.1,26000 ± 1400
